The results in this text go back to the supplement of paper PMC10567573.

First the molecules themselves.
B1: MMP1 (parent)
chain: FHGTRQYKFDPKTKRILTLQKANS
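Also: lentivirally expressed fusions sorted by FACS into six bins by GFP to DsRed ratio, PSI derived from sequencing read proportions per bin multiplied by bin number.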

This data set covers variants of B1. The experiment in a line: protein stability index of a GFP-peptide fusion (GPS, HEK-293T) (PSI 1-6); higher = more stable. The note with it: c terminus: a fixed tail appended.
Turning to FHGTRYYKFDPKTKRILTLQKANS, the protein stability index was determined as 2.04.

For the variant FHGTREYKFDPKTKRILTLQKANS, the protein stability index was 2.12.

As to FHGTRIYKFDPKTKRILTLQKANS, the protein stability index is 2.39.

Consider FHGTRHYKFDPKTKRILTLQKANS, for which the protein stability index was 4.5.

For the variant FHGTRSYKFDPKTKRILTLQKANS, the protein stability index is 1.67.

Take FHGTRTYKFDPKTKRILTLQKANS: the protein stability index was 1.6.

In the case of FHGTRGYKFDPKTKRILTLQKANS, the protein stability index was 1.61.

For FHGTRCYKFDPKTKRILTLQKANS, the protein stability index amounted to 1.9.

FHGTRWYKFDPKTKRILTLQKANS: the protein stability index came out at 2.63.

Regarding FHGTRAYKFDPKTKRILTLQKANS, the protein stability index was 2.15.

In the case of FHGTRPYKFDPKTKRILTLQKANS, the protein stability index was 1.46.

For the variant FHGTRNYKFDPKTKRILTLQKANS, the protein stability index came to 1.92.

Take FHGTRLYKFDPKTKRILTLQKANS: the protein stability index amounted to 1.83.

Turning to FHGTRFYKFDPKTKRILTLQKANS, the protein stability index came to 3.64.

FHGTRMYKFDPKTKRILTLQKANS: the protein stability index is 1.82.

FHGTRDYKFDPKTKRILTLQKANS: the protein stability index is 1.87.

As to FHGTRKYKFDPKTKRILTLQKANS, the protein stability index turned out to be 1.92.

For the variant FHGTRVYKFDPKTKRILTLQKANS, the protein stability index worked out at 2.96.

FPGTRQYKFDPKTKRILTLQKANS: the protein stability index stood at 1.68.

Consider FNGTRQYKFDPKTKRILTLQKANS, for which the protein stability index amounted to 2.33.

Regarding FWGTRQYKFDPKTKRILTLQKANS, the protein stability index amounted to 2.29.

FEGTRQYKFDPKTKRILTLQKANS: the protein stability index worked out at 3.03.

In the case of FFGTRQYKFDPKTKRILTLQKANS, the protein stability index was 2.34.

As for FKGTRQYKFDPKTKRILTLQKANS, the protein stability index amounted to 2.57.

On to FVGTRQYKFDPKTKRILTLQKANS, for which the protein stability index was found to be 1.91.

On to FLGTRQYKFDPKTKRILTLQKANS, for which the protein stability index was determined as 2.36.

For FTGTRQYKFDPKTKRILTLQKANS, the protein stability index amounted to 2.04.

On to FQGTRQYKFDPKTKRILTLQKANS, for which the protein stability index stood at 2.19.

As for FIGTRQYKFDPKTKRILTLQKANS, the protein stability index amounted to 2.47.

On to FRGTRQYKFDPKTKRILTLQKANS, for which the protein stability index was 3.04.

FGGTRQYKFDPKTKRILTLQKANS: the protein stability index is 2.55.

Regarding FDGTRQYKFDPKTKRILTLQKANS, the protein stability index is 3.55.

In the case of FCGTRQYKFDPKTKRILTLQKANS, the protein stability index stood at 1.88.

Consider FYGTRQYKFDPKTKRILTLQKANS, for which the protein stability index is 2.35.

Take FAGTRQYKFDPKTKRILTLQKANS: the protein stability index was 1.69.

Turning to FMGTRQYKFDPKTKRILTLQKANS, the protein stability index turned out to be 2.53.

Regarding FSGTRQYKFDPKTKRILTLQKANS, the protein stability index came to 2.39.

On to FHGTRQYKLDPKTKRILTLQKANS, for which the protein stability index came to 2.05.

For the variant FHGTRQYKIDPKTKRILTLQKANS, the protein stability index was 1.68.

In the case of FHGTRQYKGDPKTKRILTLQKANS, the protein stability index came to 2.24.

Regarding FHGTRQYKMDPKTKRILTLQKANS, the protein stability index was 1.67.

As for FHGTRQYKPDPKTKRILTLQKANS, the protein stability index came to 2.13.

As for FHGTRQYKWDPKTKRILTLQKANS, the protein stability index is 2.27.

FHGTRQYKRDPKTKRILTLQKANS: the protein stability index came out at 2.39.

Turning to FHGTRQYKADPKTKRILTLQKANS, the protein stability index is 1.74.

Regarding FHGTRQYKNDPKTKRILTLQKANS, the protein stability index stood at 2.39.

Turning to FHGTRQYKYDPKTKRILTLQKANS, the protein stability index stood at 1.75.

In the case of FHGTRQYKQDPKTKRILTLQKANS, the protein stability index was determined as 1.6.

For the variant FHGTRQYKKDPKTKRILTLQKANS, the protein stability index was found to be 2.17.

For FHGTRQYKEDPKTKRILTLQKANS, the protein stability index was found to be 1.76.

Regarding FHGTRQYKCDPKTKRILTLQKANS, the protein stability index turned out to be 2.48.

As to FHGTRQYKDDPKTKRILTLQKANS, the protein stability index was 2.27.

Consider FHGTRQYKTDPKTKRILTLQKANS, for which the protein stability index was 1.55.

On to FHGTRQYKVDPKTKRILTLQKANS, for which the protein stability index turned out to be 1.58.

In the case of FHGTRQYKHDPKTKRILTLQKANS, the protein stability index was determined as 1.98.

For FHGTRQYKSDPKTKRILTLQKANS, the protein stability index is 2.08.

In the case of FHGTIQYKFDPKTKRILTLQKANS, the protein stability index stood at 2.21.

Turning to FHGTEQYKFDPKTKRILTLQKANS, the protein stability index amounted to 2.02.

As for FHGTMQYKFDPKTKRILTLQKANS, the protein stability index amounted to 2.3.

As for FHGTWQYKFDPKTKRILTLQKANS, the protein stability index stood at 2.45.

As for FHGTVQYKFDPKTKRILTLQKANS, the protein stability index was 2.04.

Take FHGTTQYKFDPKTKRILTLQKANS: the protein stability index is 1.68.

Consider FHGTNQYKFDPKTKRILTLQKANS, for which the protein stability index amounted to 1.98.

Regarding FHGTPQYKFDPKTKRILTLQKANS, the protein stability index came to 2.32.

As for FHGTCQYKFDPKTKRILTLQKANS, the protein stability index came to 1.79.

Turning to FHGTFQYKFDPKTKRILTLQKANS, the protein stability index amounted to 1.7.

FHGTGQYKFDPKTKRILTLQKANS: the protein stability index came to 1.88.

Turning to FHGTYQYKFDPKTKRILTLQKANS, the protein stability index turned out to be 2.13.

In the case of FHGTKQYKFDPKTKRILTLQKANS, the protein stability index stood at 2.55.

Take FHGTHQYKFDPKTKRILTLQKANS: the protein stability index was 2.07.

Regarding FHGTLQYKFDPKTKRILTLQKANS, the protein stability index was 2.2.

On to FHGTDQYKFDPKTKRILTLQKANS, for which the protein stability index was 2.38.

Consider FHGTQQYKFDPKTKRILTLQKANS, for which the protein stability index was 1.83.

For FHGTSQYKFDPKTKRILTLQKANS, the protein stability index came to 1.72.

For the variant FHGTAQYKFDPKTKRILTLQKANS, the protein stability index was 1.8.

Regarding FHGDRQYKFDPKTKRILTLQKANS, the protein stability index turned out to be 2.43.

As for FHGERQYKFDPKTKRILTLQKANS, the protein stability index worked out at 2.29.

For the variant FHGWRQYKFDPKTKRILTLQKANS, the protein stability index worked out at 3.19.

Take FHGIRQYKFDPKTKRILTLQKANS: the protein stability index came to 2.13.

FHGSRQYKFDPKTKRILTLQKANS: the protein stability index was determined as 2.08.

For the variant FHGRRQYKFDPKTKRILTLQKANS, the protein stability index turned out to be 2.06.

Regarding FHGKRQYKFDPKTKRILTLQKANS, the protein stability index came out at 2.17.

As to FHGARQYKFDPKTKRILTLQKANS, the protein stability index came out at 1.81.

For FHGYRQYKFDPKTKRILTLQKANS, the protein stability index amounted to 2.98.

Regarding FHGVRQYKFDPKTKRILTLQKANS, the protein stability index came to 1.69.

Regarding FHGQRQYKFDPKTKRILTLQKANS, the protein stability index worked out at 2.95.

For the variant FHGNRQYKFDPKTKRILTLQKANS, the protein stability index stood at 2.38.

On to FHGLRQYKFDPKTKRILTLQKANS, for which the protein stability index came to 1.26.

Turning to FHGMRQYKFDPKTKRILTLQKANS, the protein stability index was found to be 1.8.

As to FHGPRQYKFDPKTKRILTLQKANS, the protein stability index is 1.61.

As to FHGGRQYKFDPKTKRILTLQKANS, the protein stability index turned out to be 1.78.

With FHGFRQYKFDPKTKRILTLQKANS, the protein stability index was 3.12.

FHGCRQYKFDPKTKRILTLQKANS: the protein stability index stood at 1.6.

In the case of FHGHRQYKFDPKTKRILTLQKANS, the protein stability index came to 1.68.
